Assay results published in the supplement of paper PMC9112550, “Optimization of the antimicrobial peptide Bac7 by deep mutational scanning” (BMC Biology, 2022).

Tested on: Escherichia coli TOP10
Assay: shrunken log2 fold change of peptide-encoding DNA abundance (4.5 h post-induction vs induction); higher = less antimicrobial activity (less host growth inhibition)
Conditions: time post-induction: 4.5 h; library: site-saturation at positions 5, 18, 19, 20
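Also: peptides expressed intracellularly from a pBAD plasmid library in pooled LB shake-flask culture, induced with 0.3% L-arabinose, DNA abundance read by NGS, three biological replicates, DESeq2 with apeglm shrinkage.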

Row | Sequence | shrunken log2 fold change
1 | RRIRTRPPRLPRPRPRPAMKPRP | -0.125
2 | RRIRHRPPRLPRPRPRPSPFPRP | -0.199
3 | RRIRYRPPRLPRPRPRPYRTPRP | -0.588
4 | RRIRARPPRLPRPRPRPQQHPRP | 0.284
5 | RRIRSRPPRLPRPRPRPVWTPRP | 0.241
6 | RRIRLRPPRLPRPRPRPKIYPRP | -0.492
7 | RRIRQRPPRLPRPRPRPGPIPRP | 0.253
8 | RRIRGRPPRLPRPRPRPTRMPRP | 0.571
9 | RRIRVRPPRLPRPRPRPGQLPRP | 0.208
10 | RRIRSRPPRLPRPRPRPRNQPRP | 0.205
11 | RRIRSRPPRLPRPRPRPIGWPRP | 0.142
12 | RRIRFRPPRLPRPRPRPSSVPRP | -0.503
13 | RRIRPRPPRLPRPRPRPMMFPRP | -0.213
14 | RRIRERPPRLPRPRPRPERYPRP | -0.162
15 | RRIRSRPPRLPRPRPRPNCGPRP | -0.146
16 | RRIRARPPRLPRPRPRPVQDPRP | -0.0965
17 | RRIRVRPPRLPRPRPRPFALPRP | 0.0564
18 | RRIRERPPRLPRPRPRPTNWPRP | 0.0202
19 | RRIRWRPPRLPRPRPRPPAPPRP | 1.03
20 | RRIRNRPPRLPRPRPRPDPMPRP | -0.177
21 | RRIRCRPPRLPRPRPRPFSFPRP | -0.513
22 | RRIRGRPPRLPRPRPRPDFDPRP | 0.612
23 | RRIRKRPPRLPRPRPRPDQFPRP | -0.0391
24 | RRIRSRPPRLPRPRPRPYAEPRP | -0.235
25 | RRIRCRPPRLPRPRPRPCAGPRP | 0.039

Row | Sequence | shrunken log2 fold change
26 | RRIRWRPPRLPRPRPRPWWNPRP | -0.0562
27 | RRIRHRPPRLPRPRPRPYQLPRP | -0.0135
28 | RRIRGRPPRLPRPRPRPINQPRP | -0.0767
29 | RRIRMRPPRLPRPRPRPSPKPRP | 0.593
30 | RRIRARPPRLPRPRPRPCNYPRP | -0.178
31 | RRIRWRPPRLPRPRPRPWHVPRP | -0.201
32 | RRIRPRPPRLPRPRPRPYEPPRP | -0.317
33 | RRIRCRPPRLPRPRPRPPWFPRP | -0.00887
34 | RRIRLRPPRLPRPRPRPQLMPRP | 0.0272
35 | RRIRGRPPRLPRPRPRPRFEPRP | 0.881
36 | RRIRTRPPRLPRPRPRPVGSPRP | -0.243
37 | RRIRGRPPRLPRPRPRPVDAPRP | 0.395
38 | RRIRWRPPRLPRPRPRPRFIPRP | -0.00733
39 | RRIRGRPPRLPRPRPRPSKCPRP | -0.313
40 | RRIRERPPRLPRPRPRPPKKPRP | 0.0812
41 | RRIRKRPPRLPRPRPRPVMNPRP | -0.0155
42 | RRIRERPPRLPRPRPRPWICPRP | -0.378
43 | RRIRLRPPRLPRPRPRPVEAPRP | 0.224
44 | RRIRQRPPRLPRPRPRPSAPPRP | 0.175
45 | RRIRDRPPRLPRPRPRPMLSPRP | 4.44e-05
46 | RRIRTRPPRLPRPRPRPVKVPRP | 0.00854
47 | RRIRWRPPRLPRPRPRPKFVPRP | 0.295
48 | RRIRHRPPRLPRPRPRPHAEPRP | -0.0216
49 | RRIRQRPPRLPRPRPRPSSEPRP | 0.0507
50 | RRIRERPPRLPRPRPRPTVFPRP | 0.0505

Row | Sequence | shrunken log2 fold change
51 | RRIRCRPPRLPRPRPRPSVTPRP | -0.288
52 | RRIRVRPPRLPRPRPRPRKCPRP | -0.0338
53 | RRIRIRPPRLPRPRPRPHQRPRP | -0.137
54 | RRIRLRPPRLPRPRPRPHICPRP | -0.162
55 | RRIRPRPPRLPRPRPRPYFTPRP | -0.882
56 | RRIRMRPPRLPRPRPRPDWGPRP | 0.0473
57 | RRIRMRPPRLPRPRPRPGGYPRP | 0.0413
58 | RRIRYRPPRLPRPRPRPKAKPRP | 0.0915
59 | RRIRSRPPRLPRPRPRPAGWPRP | 0.795
60 | RRIRTRPPRLPRPRPRPWAKPRP | 0.057
61 | RRIRARPPRLPRPRPRPIGGPRP | -0.0402
62 | RRIRRRPPRLPRPRPRPEWIPRP | 0.361
63 | RRIRTRPPRLPRPRPRPRSMPRP | 0.0542
64 | RRIRLRPPRLPRPRPRPYFFPRP | -0.45
65 | RRIRQRPPRLPRPRPRPKIAPRP | 0.278
66 | RRIRQRPPRLPRPRPRPGPHPRP | 0.0856
67 | RRIRTRPPRLPRPRPRPLDIPRP | -1.22
68 | RRIRWRPPRLPRPRPRPQDFPRP | 0.203
69 | RRIRERPPRLPRPRPRPRPYPRP | -0.0326
70 | RRIRQRPPRLPRPRPRPWTMPRP | 0.0143
71 | RRIRWRPPRLPRPRPRPYYQPRP | -0.297
72 | RRIRIRPPRLPRPRPRPVVYPRP | -0.312
73 | RRIRPRPPRLPRPRPRPRDIPRP | -0.191
74 | RRIRTRPPRLPRPRPRPILWPRP | 0.0348
75 | RRIRLRPPRLPRPRPRPSYKPRP | -0.456

Row | Sequence | shrunken log2 fold change
76 | RRIRDRPPRLPRPRPRPVMSPRP | -0.257
77 | RRIRNRPPRLPRPRPRPYKTPRP | -0.0391
78 | RRIRCRPPRLPRPRPRPTENPRP | 0.0623
79 | RRIRHRPPRLPRPRPRPINYPRP | -0.248
80 | RRIRIRPPRLPRPRPRPDGEPRP | 0.0147
81 | RRIRYRPPRLPRPRPRPFHAPRP | 0.207
82 | RRIRRRPPRLPRPRPRPCYMPRP | -0.191
83 | RRIRWRPPRLPRPRPRPKNDPRP | 0.0313
84 | RRIRVRPPRLPRPRPRPHLIPRP | -0.352
85 | RRIRNRPPRLPRPRPRPRRLPRP | 2.6
86 | RRIRARPPRLPRPRPRPWCDPRP | 0.00114
87 | RRIRARPPRLPRPRPRPDTDPRP | 0.365
88 | RRIRIRPPRLPRPRPRPKQKPRP | -0.12
89 | RRIRIRPPRLPRPRPRPDQKPRP | -0.0112
90 | RRIRQRPPRLPRPRPRPAVYPRP | -0.15
91 | RRIRHRPPRLPRPRPRPILSPRP | -0.0163
92 | RRIRSRPPRLPRPRPRPPFPPRP | 0.256
93 | RRIRCRPPRLPRPRPRPWDEPRP | 0.247
94 | RRIRGRPPRLPRPRPRPICIPRP | 0.176
95 | RRIRGRPPRLPRPRPRPSLHPRP | 0.316
96 | RRIRVRPPRLPRPRPRPIPQPRP | 0.485
97 | RRIRLRPPRLPRPRPRPRCEPRP | 0.194
98 | RRIRYRPPRLPRPRPRPGCWPRP | 0.289
99 | RRIRPRPPRLPRPRPRPEWRPRP | 0.362
100 | RRIRKRPPRLPRPRPRPPQQPRP | 0.346

Row | Sequence | shrunken log2 fold change
101 | RRIRSRPPRLPRPRPRPVTLPRP | -0.167
102 | RRIRLRPPRLPRPRPRPGWRPRP | 0.317
103 | RRIRTRPPRLPRPRPRPNSSPRP | -0.13
104 | RRIRYRPPRLPRPRPRPYARPRP | -0.0987
105 | RRIRVRPPRLPRPRPRPTYYPRP | -0.315
106 | RRIRVRPPRLPRPRPRPKEWPRP | 0.146
107 | RRIRMRPPRLPRPRPRPYWNPRP | -1.04
108 | RRIRCRPPRLPRPRPRPESKPRP | 0.198
109 | RRIRARPPRLPRPRPRPSYHPRP | -0.255
110 | RRIRPRPPRLPRPRPRPKCSPRP | -0.197
111 | RRIRRRPPRLPRPRPRPDGTPRP | 0.0222
112 | RRIRMRPPRLPRPRPRPEMQPRP | 2.83
113 | RRIRPRPPRLPRPRPRPEEIPRP | -0.00277
114 | RRIRHRPPRLPRPRPRPGFRPRP | 0.237
115 | RRIRWRPPRLPRPRPRPSSSPRP | 0.00035
116 | RRIRMRPPRLPRPRPRPCMNPRP | -0.217
117 | RRIRARPPRLPRPRPRPPTPPRP | 1.33
118 | RRIRTRPPRLPRPRPRPDKLPRP | 0.0136
119 | RRIRMRPPRLPRPRPRPDPLPRP | 0.255
120 | RRIRDRPPRLPRPRPRPSYCPRP | -0.046
121 | RRIRDRPPRLPRPRPRPTTGPRP | 0.673
122 | RRIRVRPPRLPRPRPRPSYWPRP | -0.341
123 | RRIRLRPPRLPRPRPRPGFEPRP | 0.168
124 | RRIRNRPPRLPRPRPRPVDCPRP | -0.209
125 | RRIRGRPPRLPRPRPRPMWRPRP | 0.899

Row | Sequence | shrunken log2 fold change
126 | RRIRPRPPRLPRPRPRPMMPPRP | -0.141
127 | RRIRFRPPRLPRPRPRPQEHPRP | -0.115
128 | RRIRGRPPRLPRPRPRPVMSPRP | 0.401
129 | RRIRWRPPRLPRPRPRPCMWPRP | -0.0796
130 | RRIRYRPPRLPRPRPRPADAPRP | 0.0896
131 | RRIRPRPPRLPRPRPRPCREPRP | -0.075
132 | RRIRTRPPRLPRPRPRPIIWPRP | -0.0836
133 | RRIRHRPPRLPRPRPRPNTGPRP | 0.121
134 | RRIRRRPPRLPRPRPRPRERPRP | 1.02
135 | RRIRQRPPRLPRPRPRPADYPRP | -0.155
136 | RRIRDRPPRLPRPRPRPTQWPRP | 0.0594
137 | RRIRFRPPRLPRPRPRPKYKPRP | -0.63
138 | RRIRHRPPRLPRPRPRPWTLPRP | -0.00151
139 | RRIRARPPRLPRPRPRPVIIPRP | -0.104
140 | RRIRVRPPRLPRPRPRPYRWPRP | -0.355
141 | RRIRMRPPRLPRPRPRPCARPRP | 0.343
142 | RRIRSRPPRLPRPRPRPKKAPRP | 0.0943
143 | RRIRKRPPRLPRPRPRPRHWPRP | 0.0398
144 | RRIRVRPPRLPRPRPRPDYDPRP | 0.00442
145 | RRIRYRPPRLPRPRPRPNDEPRP | -0.034
146 | RRIRSRPPRLPRPRPRPIVMPRP | 0.0137
147 | RRIRERPPRLPRPRPRPIWRPRP | 0.0579
148 | RRIRGRPPRLPRPRPRPSIYPRP | 0.302
149 | RRIRMRPPRLPRPRPRPFYEPRP | 0.027
150 | RRIRPRPPRLPRPRPRPNVCPRP | -0.169
